Assays:
11-26 = target: T1, 11-26; experiment: direct ELISA on plated overlapping 16-mer peptides of AMHR2-ED, 4D12G1 as primary antibody
T1 construct: overlapping 16-mer of human AMHR2-ED; also called p11-26; AMHR2-ED 11-26 16-mer peptide
T1 peptide: EAPGVRGSTKTLGELL
Experimental: (§1) Competitive ELISAs were used to determine the AMHR2-ED sequence recognized by the 4D12G1 mAb. A set of overlapping 16-mer peptides spanning the entire 132 amino acid sequence of human AMHR2-ED was generated. Each peptide shifted by one amino acid and all cysteine residues were replaced by serine to avoid disulfide bond formation (Thermo Fisher). Individual 16-mer peptides were plated in solid phase in microtiter wells, increasing concentrations of each 16-mer peptide were incubated with the 4D12G1 mAb in liquid phase, and ELISAs were performed as described above. The binding site of the 4D12G1 mAb was confirmed by competitive ELISA using overlapping peptides containing alanine substitutions for each amino acid spanning the immunoreactive region of AMEIR2-ED. The substituted peptides were used in liquid phase with the 4D12G1 mAb to determine binding inhibition to rhAMHR2-ED in solid phase. The AMHR2-ED binding sequence of the 4D12G1 mAb and the critical AMHR2-ED residues for such binding were confirmed by SPOT peptide arrays. Peptides spanning the AMHR2-ED 9-40 immunoreactive region and ranging from 4-16-mers in length were synthesized >90% pure on cellulose membranes (JPT Peptide Technologies, Berlin, Germany), treated overnight with blocking buffer (Thermo Fisher), followed by treatment with the 4D12G1 mAb at 1.0 μg/ml for 3 hours at room temperature, followed by three washes with PBS containing 0.01% Tween-20 (Bio-Rad). The membranes were then treated with a 1:10,000 dilution of an HRP-conjugated rabbit anti-mouse IgG (MilliporeSigma) followed by three washes with PBS containing 0.01% Tween-20 (Bio-Rad). Bound antibody was detected using the HyGLO chemiluminescence system (Thomas Scientific).
(§2) An overlapping series of 16-mer peptides spanning the entire 132 amino acid sequence of human AMHR2-ED (FIG. 3A) with moving single amino acid shifts were plated for direct ELISA testing using the 4D12G1 mAb as primary antibody. […] To determine amino acids recognized by the 4D12G1 mAb, an overlapping series of peptides spanning the immunoreactive sequence comprising AMHR2-ED 13-30 were synthesized with alanine substitutions at each N-terminal residue or with glycine substitutions for any native N-terminal alanine.

12-27 = target: T2, 12-27; experiment: as above
T2 construct: overlapping 16-mer of human AMHR2-ED; also called p12-27; AMHR2-ED 12-27 16-mer peptide
T2 peptide: APGVRGSTKTLGELLD
Experimental: as §1, §2

13-28 = target: T3, 13-28; experiment: as above
T3 construct: overlapping 16-mer of human AMHR2-ED; also called p13-28; AMHR2-ED 13-28 16-mer peptide
T3 peptide: PGVRGSTKTLGELLDT
Experimental: as §1, §2

14-29 = target: T4, 14-29; experiment: as above
T4 construct: overlapping 16-mer of human AMHR2-ED; also called p14-29; AMHR2-ED 14-29 16-mer peptide
T4 peptide: GVRGSTKTLGELLDTG
Experimental: as §1, §2

15-30 = target: T5, 15-30; experiment: as above
T5 construct: overlapping 16-mer of human AMHR2-ED; also called p15-30; AMHR2-ED 15-30 16-mer peptide
T5 peptide: VRGSTKTLGELLDTGT
Experimental: as §1, §2

16-31 = target: T6, 16-31; experiment: as above
T6 construct: overlapping 16-mer of human AMHR2-ED; also called p16-31; AMHR2-ED 16-31 16-mer peptide
T6 peptide: RGSTKTLGELLDTGTE
Experimental: as §1, §2

17-32 = target: T7, 17-32; experiment: as above
T7 construct: overlapping 16-mer of human AMHR2-ED; also called p17-32; AMHR2-ED 17-32 16-mer peptide
T7 peptide: GSTKTLGELLDTGTEL
Experimental: as §1, §2

rβ-Casein = target: T8, rβ-Casein (mouse, UniProt P10598); experiment: competitive ELISA: 4D12G1 pre-incubated with rising rβ-casein, then added to plates coated with rhAMHR2-ED
T8 construct: recombinant; also called recombinant mouse β-casein; recombinant β-casein
Experimental: The specificity of the mAbs was determined by competitive ELISA. Briefly, mAbs were incubated with increasing concentrations of rhAMHR2-ED in liquid phase PBS containing 0.02% Tween-20 (Bio-Rad) for 24 hours at 4° C. The antigen-antibody mixtures were added to the 96-well Maxisorp microtiter plates (Corning Life Sciences, Tewksbury, Mass.) pre-coated with 4 μg/ml rhAMHR2-ED followed by blocking with 1% BSA (Sigma-Aldrich). Recombinant mouse β-casein was used as the specificity control. Wells were then incubated with a secondary anti-mouse IgG conjugated with horseradish peroxidase (HRP; MilliporeSigma, Burlington, Mass.) followed by addition of 2,2′-Azino-bis(3-ethylbenzothiazoline-6-sulfonic acid) diammonium salt (ABTS) substrate (Sigma-Aldrich). Optical density was determined by absorbance at 405 nm.

T8 sequence (P10598 16-231 limits assumed): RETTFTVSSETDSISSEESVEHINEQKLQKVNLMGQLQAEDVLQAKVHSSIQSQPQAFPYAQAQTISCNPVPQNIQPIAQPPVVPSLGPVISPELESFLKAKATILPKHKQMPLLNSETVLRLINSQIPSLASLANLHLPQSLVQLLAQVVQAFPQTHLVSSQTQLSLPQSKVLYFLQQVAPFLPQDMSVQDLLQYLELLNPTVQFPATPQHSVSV

B1: 4D12G1 mAb (antibody, IgG1, V domains shown)
VH: DVKLVESGGGLVKLGGSLKLSCAASGFTFSRYFMSWVRQTPEKRLELVAAINSDGGRTYYPDTVKGRFTISRDNAKNTLYLQMSSLKSEDTALYYCTRHIYSYYEDYFDYWGQGTTLTVSS
VL: DVVMTQTPLSLPVSLGDQASISCRSSQSLVHSNGNTYLHWYLQKPGQSPKLLIYKVSKRFSGVPDRFSGSGSGTDFTLKISRVEAEDLGVYFCSQSTHVYTFGGGTKLEIK
notes: also called 4D12G1 IgG1 mAb
Question: Does B1 bind (11-26)?
Answer: Result: binds

Question: Does B1 bind (12-27)?
Answer: Result: binds

Question: Does B1 bind (13-28)?
Answer: Result: binds

Question: Does B1 bind (14-29)?
Answer: Result: binds

Question: Does B1 bind (15-30)?
Answer: Result: binds

Question: Does B1 bind (16-31)?
Answer: Result: binds

Question: Does B1 bind (17-32)?
Answer: Result: binds

Question: Does B1 bind (rβ-Casein)?
Answer: Result: no binding (tested: 100 µg/ml)
